As a reminder, the stoichiometry N is the number of molecules, sites or subunits per partner or assembly.

The text below walks through data of publication doi:10.1101/127183.

For assay [1], the target named is C-terminal OCP-related Carotenoid-binding Protein (COCP), carotenoid-bound holoform (Synechocystis). The assay is described as follows: SEC.
The target of assay [2] is Synechocystis OCP^WT apoprotein (Apo-OCP) (Synechocystis) (UniProt P74102). Kind of assay: cross-linking.
For assay [3], the target named is C-terminal OCP-related Carotenoid-binding Protein (COCP), carotenoid-bound holoform (Synechocystis). Kind of assay: cross-linking.
In assay [4] the target is COCP with an Ala substitution of Trp-288 (COCP-W288A), carotenoid-bound holoform (Synechocystis). The assay is described as follows: SEC.
The target in assay [5] is Synechocystis OCP^WT apoprotein (Apo-OCP) (Synechocystis) (UniProt P74102). The assay is described as follows: SEC. For orientation: Size exclusion chromatography separates by hydrodynamic size, large species first.
The target is the same in assay [6]. Kind of assay: SEC. The source holds these as a separate data set.
The target is the same in assay [7]. Kind of assay: SEC-SAXS with right angle light scattering.
Assay [8] has as its target Apoprotein of COCP (Apo-COCP) (Synechocystis). The assay is described as follows: SEC.

Sequence of UniProt P74102 (P74102 whole entry): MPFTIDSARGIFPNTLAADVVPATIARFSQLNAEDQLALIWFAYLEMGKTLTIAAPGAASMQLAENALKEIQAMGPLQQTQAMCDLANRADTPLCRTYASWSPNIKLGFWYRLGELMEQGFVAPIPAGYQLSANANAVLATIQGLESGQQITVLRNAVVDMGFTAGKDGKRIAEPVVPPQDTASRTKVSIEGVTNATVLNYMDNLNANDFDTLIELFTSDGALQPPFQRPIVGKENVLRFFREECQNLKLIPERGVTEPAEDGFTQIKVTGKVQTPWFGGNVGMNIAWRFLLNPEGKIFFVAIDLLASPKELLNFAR

As for “C-terminal OCP-related Carotenoid-binding Protein (COCP), carotenoid-bound holoform (domain or fragment)”, the stoichiometry N in assay [1] and in assay [3] was 2 in each case. Further, the stoichiometry N (COCP subunit per Apo-OCP subunit) in assay [2] worked out at 1.

In assay [4], “COCP with an Ala substitution of Trp-288 (COCP-W288A), carotenoid-bound holoform (domain or fragment)” came in with a stoichiometry N of 2.

For the substance “Synechocystis OCP^WT apoprotein (Apo-OCP) (from UniProt P74102 1-317) (natural protein)”, the stoichiometry N in assay [5], in assay [6] and in assay [7] was 2 throughout.

“Apoprotein of COCP (Apo-COCP) (domain or fragment)” registered a stoichiometry N in assay [8] of 2.
